For experiment [1], the target named is rhNav1.7α + β1-β2-β3 (rhesus Nav1.7α co-expressed with Navβ1, Navβ2 and Navβ3) (rhesus monkey). In words: FACS, periplasmic extract, CHO Flp-In cells; SD MFI 10.
Experiment [2] concerns the target muNav1.7α (murine Nav1.7α) (murine) (UniProt Q62205). The experiment can be described thus: FACS, periplasmic extract, HEK Jmp-In cells; SD MFI 123.
Experiment [3] deals with rhNav1.7α + β1-β2-β3 (rhesus Nav1.7α co-expressed with Navβ1, Navβ2 and Navβ3) (rhesus monkey). The experiment can be described thus: FACS, periplasmic extract, CHO Flp-In cells; SD MFI 53. On the technique in general: In flow cytometry, cells or beads pass a laser one at a time.
Experiment [4] addresses muNav1.7α (murine Nav1.7α) (murine) (UniProt Q62205). In words: FACS, periplasmic extract, HEK Jmp-In cells; SD MFI 61.
The target of experiment [5] is rhNav1.7α + β1-β2-β3 (rhesus Nav1.7α co-expressed with Navβ1, Navβ2 and Navβ3) (rhesus monkey). In words: FACS, periplasmic extract, CHO Flp-In cells; SD MFI 20.
Experiment [6] shares this target. In words: FACS, periplasmic extract, CHO Flp-In cells; SD MFI 49.
For experiment [7], the target named is muNav1.7α (murine Nav1.7α) (murine) (UniProt Q62205). The experiment can be described thus: FACS, periplasmic extract, HEK Jmp-In cells; SD MFI 23.
The target in experiment [8] is rhNav1.7α + β1-β2-β3 (rhesus Nav1.7α co-expressed with Navβ1, Navβ2 and Navβ3) (rhesus monkey). The experiment can be described thus: FACS, periplasmic extract, CHO Flp-In cells; SD MFI 33.
Experiment [9] shares this target. The experiment can be described thus: FACS, periplasmic extract, CHO Flp-In cells; SD MFI 22.
The target is the same in experiment [10]. In words: FACS, periplasmic extract, CHO Flp-In cells; SD MFI 4.
Experiment [11] has the same target. The experiment can be described thus: FACS, periplasmic extract, CHO Flp-In cells; SD MFI 18.
In experiment [12] the target is muNav1.7α (murine Nav1.7α) (murine) (UniProt Q62205). The experiment can be described thus: FACS, periplasmic extract, HEK Jmp-In cells; SD MFI 175.
For experiment [13], the target named is rhNav1.7α + β1-β2-β3 (rhesus Nav1.7α co-expressed with Navβ1, Navβ2 and Navβ3) (rhesus monkey). In words: FACS, periplasmic extract, CHO Flp-In cells; SD MFI 16.
Experiment [14] addresses muNav1.7α (murine Nav1.7α) (murine) (UniProt Q62205). In words: FACS, periplasmic extract, HEK Jmp-In cells; SD MFI 3361.
Experiment [15] addresses rhNav1.7α + β1-β2-β3 (rhesus Nav1.7α co-expressed with Navβ1, Navβ2 and Navβ3) (rhesus monkey). The experiment can be described thus: FACS, periplasmic extract, CHO Flp-In cells; SD MFI 2.
Experiment [16] shares this target. The experiment can be described thus: FACS, periplasmic extract, CHO Flp-In cells; SD MFI 13.
Experiment [17] deals with muNav1.7α (murine Nav1.7α) (murine) (UniProt Q62205). The experiment can be described thus: FACS, periplasmic extract, HEK Jmp-In cells; SD MFI 24.
Experiment [18] deals with rhNav1.7α + β1-β2-β3 (rhesus Nav1.7α co-expressed with Navβ1, Navβ2 and Navβ3) (rhesus monkey). The experiment can be described thus: FACS, periplasmic extract, CHO Flp-In cells; SD MFI 34.
Experiment [19] shares this target. In words: FACS, periplasmic extract, CHO Flp-In cells; SD MFI 15.
Experiment [20] concerns the target muNav1.7α (murine Nav1.7α) (murine) (UniProt Q62205). In words: FACS, periplasmic extract, HEK Jmp-In cells; SD MFI 5.
The target of experiment [21] is rhNav1.7α + β1-β2-β3 (rhesus Nav1.7α co-expressed with Navβ1, Navβ2 and Navβ3) (rhesus monkey). In words: FACS, periplasmic extract, CHO Flp-In cells; SD MFI 0.
Experiment [22] addresses huNav1.5-β1-β2-β3 (human) (UniProt Q14524). In words: FACS, CHO Flp-In, competitor 1 µM IRR00092.
Experiment [23] addresses huNav1.7α + β1-β2-β3 (human) (UniProt Q15858). The experiment can be described thus: FACS, CHO Flp-In, competitor 1 µM IRR00092.
Experiment [24] has as its target rhNav1.7α + β1-β2-β3 (rhesus monkey). In words: FACS, CHO Flp-In, competitor 1 µM IRR00092.
Experiment [25] concerns the target huNav1.5-β1-β2-β3 (human) (UniProt Q14524). In words: FACS, CHO Flp-In, competitor 1 µM F010300703.
Experiment [26] addresses rhNav1.7α + β1-β2-β3 (rhesus monkey). In words: FACS, CHO Flp-In, competitor 1 µM F010300703.
The target of experiment [27] is huNav157chim14-β1-β2-β3 (human). The experiment can be described thus: binding FACS, HEK Flp-In.
The target of experiment [28] is huNav1.5-β1-β2-β3 (human) (UniProt Q14524). The experiment can be described thus: binding FACS, HEK Flp-In.
Experiment [29] has the same target. The experiment can be described thus: binding FACS, CHO Flp-In, periplasmic extract.
Experiment [30] has as its target huNav1.7α + β1-β2-β3 (human) (UniProt Q15858). The experiment can be described thus: binding FACS, CHO Flp-In, periplasmic extract.

B1: F0103464B09 N99Q library variant (VHH, name in Kabat numbering)
VHH: EVQLVESGGGLVQPGGSLRLSCATTSRAFIRDVFTGWYRRVPGKERELVARIYNGGNTNYADFAKGRFSISRDNAKKMVTLRMSNLKPEDTGVYYCLFSGTIQTGREYRSGDYWGQGTLVTVSS
In the case of B1, the figures for the Mean MFI in [1] and in experiment [2] were 546 MFI and 1490 MFI, respectively.

B2: F0103464B09 T100Q library variant (VHH, name in Kabat numbering)
VHH: EVQLVESGGGLVQPGGSLRLSCATTSRAFIRDVFTGWYRRVPGKERELVARIYNGGNTNYADFAKGRFSISRDNAKKMVTLRMSNLKPEDTGVYYCLFSGTINQGREYRSGDYWGQGTLVTVSS
For B2, the Mean MFI in experiment [3] worked out at 650 MFI.

B3: F0103464B09 N99Y library variant (VHH, name in Kabat numbering)
VHH: EVQLVESGGGLVQPGGSLRLSCATTSRAFIRDVFTGWYRRVPGKERELVARIYNGGNTNYADFAKGRFSISRDNAKKMVTLRMSNLKPEDTGVYYCLFSGTIYTGREYRSGDYWGQGTLVTVSS
As for B3, the Mean MFI in experiment [4] came to 936 MFI; in experiment [5], 490 MFI.

B4: F0103464B09 T100R library variant (VHH, name in Kabat numbering)
VHH: EVQLVESGGGLVQPGGSLRLSCATTSRAFIRDVFTGWYRRVPGKERELVARIYNGGNTNYADFAKGRFSISRDNAKKMVTLRMSNLKPEDTGVYYCLFSGTINRGREYRSGDYWGQGTLVTVSS
As for B4, the Mean MFI in experiment [6] came out at 626 MFI.

B5: F0103464B09 T100E library variant (VHH, name in Kabat numbering)
VHH: EVQLVESGGGLVQPGGSLRLSCATTSRAFIRDVFTGWYRRVPGKERELVARIYNGGNTNYADFAKGRFSISRDNAKKMVTLRMSNLKPEDTGVYYCLFSGTINEGREYRSGDYWGQGTLVTVSS
For B5, the Mean MFI in experiment [7] stood at 973 MFI; in [8], 518 MFI.

B6: F0103464B09 N99T library variant (VHH, name in Kabat numbering)
VHH: EVQLVESGGGLVQPGGSLRLSCATTSRAFIRDVFTGWYRRVPGKERELVARIYNGGNTNYADFAKGRFSISRDNAKKMVTLRMSNLKPEDTGVYYCLFSGTITTGREYRSGDYWGQGTLVTVSS
Take B6: in experiment [9], the Mean MFI is 839 MFI.

B7: F0103464B09 T100H library variant (VHH, name in Kabat numbering)
VHH: EVQLVESGGGLVQPGGSLRLSCATTSRAFIRDVFTGWYRRVPGKERELVARIYNGGNTNYADFAKGRFSISRDNAKKMVTLRMSNLKPEDTGVYYCLFSGTINHGREYRSGDYWGQGTLVTVSS
With B7, in experiment [10], the Mean MFI is 689 MFI.

B8: F0103464B09 T100L library variant (VHH, name in Kabat numbering)
VHH: EVQLVESGGGLVQPGGSLRLSCATTSRAFIRDVFTGWYRRVPGKERELVARIYNGGNTNYADFAKGRFSISRDNAKKMVTLRMSNLKPEDTGVYYCLFSGTINLGREYRSGDYWGQGTLVTVSS
In the case of B8, the Mean MFI in [11] is 531 MFI; in [12], 1250 MFI.

B9: F0103464B09 T100Y library variant (VHH, name in Kabat numbering)
VHH: EVQLVESGGGLVQPGGSLRLSCATTSRAFIRDVFTGWYRRVPGKERELVARIYNGGNTNYADFAKGRFSISRDNAKKMVTLRMSNLKPEDTGVYYCLFSGTINYGREYRSGDYWGQGTLVTVSS
Regarding B9, the Mean MFI in [13] turned out to be 526 MFI.

B10: F0103464B09 N99W library variant (VHH, name in Kabat numbering)
VHH: EVQLVESGGGLVQPGGSLRLSCATTSRAFIRDVFTGWYRRVPGKERELVARIYNGGNTNYADFAKGRFSISRDNAKKMVTLRMSNLKPEDTGVYYCLFSGTIWTGREYRSGDYWGQGTLVTVSS
Turning to B10, the Mean MFI worked out at 3320 MFI in experiment [14] and 530 MFI in experiment [15].

B11: F0103464B09 T100I library variant (VHH, name in Kabat numbering)
VHH: EVQLVESGGGLVQPGGSLRLSCATTSRAFIRDVFTGWYRRVPGKERELVARIYNGGNTNYADFAKGRFSISRDNAKKMVTLRMSNLKPEDTGVYYCLFSGTINIGREYRSGDYWGQGTLVTVSS
Regarding B11, the Mean MFI in experiment [16] stood at 541 MFI; in experiment [17], 1310 MFI.

B12: F0103464B09 T100M library variant (VHH, name in Kabat numbering)
VHH: EVQLVESGGGLVQPGGSLRLSCATTSRAFIRDVFTGWYRRVPGKERELVARIYNGGNTNYADFAKGRFSISRDNAKKMVTLRMSNLKPEDTGVYYCLFSGTINMGREYRSGDYWGQGTLVTVSS
As to B12, the Mean MFI in experiment [18] was 585 MFI.

B13: F0103464B09 T100K library variant (VHH, name in Kabat numbering)
VHH: EVQLVESGGGLVQPGGSLRLSCATTSRAFIRDVFTGWYRRVPGKERELVARIYNGGNTNYADFAKGRFSISRDNAKKMVTLRMSNLKPEDTGVYYCLFSGTINKGREYRSGDYWGQGTLVTVSS
Take B13: the Mean MFI in [19] is 583 MFI.

B14: F0103464B09 N99R library variant (VHH, name in Kabat numbering)
VHH: EVQLVESGGGLVQPGGSLRLSCATTSRAFIRDVFTGWYRRVPGKERELVARIYNGGNTNYADFAKGRFSISRDNAKKMVTLRMSNLKPEDTGVYYCLFSGTIRTGREYRSGDYWGQGTLVTVSS
On to B14, for which the Mean MFI in experiment [20] came to 975 MFI; in experiment [21] it was 572 MFI.

B15: F010300702 (bispecific antibody, V domains shown, not shown: small tags and cut ends)
VH: EVQLVESGGGLVQPGGSLRLSCAASGSIFNINSMAWYRRAPGKQRELVASSTNGGSTNYADSVKGRFTISRDNAKRVYLQMNSLTPEDTAVYYCRALLQPSIYDISRTYWGQGTLVTVSS
As for B15, the MFI in experiment [22] turned out to be 684 MFI; in experiment [23] it was 4120 MFI; in experiment [24], 5170 MFI; in experiment [25] it was 653 MFI; in experiment [26], 721 MFI; in experiment [27], 15400 MFI. For the same molecule, the MFI came to 946 MFI in [28], 662 MFI in [29] and 1570 MFI in experiment [30].

The values above are taken from patent US20240002497A1.
